Results taken from article PMC3196576, “Probing the Functional Mechanism of Escherichia coli GroEL Using Circular Permutation” (PLoS ONE, 2011).

Experiments:
[1] = target: the molecule itself; assay: SEC; gel filtration profiles observed during purification (AKTA FPLC, 4°C); data not shown
GroEL R231W = target: T1, GroEL R231W (E. coli, UniProt P0A6F5 1-548, R231W); assay: Proteinase K protection of BeFx football complexes, recovered by centrifugal concentration (100 kDa cutoff), SDS-PAGE; 0.5 µM GroEL 14-mer, 1.0 µM unfolded rhodanese, 1.1 µM GroES, 1 mM BeCl2, 10 mM NaF, 1 mM ATP; 30 mM Tris-HCl pH 7.2, 50 mM KCl, 10 mM Mg(CH3COO)2, 25°C; 1 µg/ml Proteinase K for 30 min; conditions: both partners purified
T1 construct: GroEL, Escherichia coli, with Arg231 replaced by tryptophan; also called RW; source: purified according to the protocol of Machida et al. [34]; copies: 14

binding result (GroEL R231W)	Binder	stoichiometry N [1]
	GroEL CP254 (other, E. coli, start methionine and extraneous N-terminal residues (Met-Ala-Ala-Ala-Gln-Tyr); GroEL, E. coli, from Val254 to the original C-terminus; Val-Asp dipeptide linker (SalI site) joining the original C- and N-termini; GroEL, E. coli, from the original N-terminus minus the N-terminal methionine to Asp253 (Ala251-Glu252-Asp253); C-terminal residues after Asp253 (Val-Ala-Asn); Circular permutant; source: …) MAAAQYVEGEALATLVVNTMRGIVKVAAVKAPGFGDRRKAMLQDIATLTGGTVISEEIGMELEKATLEDLGQAKRVVINKDTTTIIDGVGEEAAIQGRVAQIRQQIEEATSDYDREKLQERVAKLAGGVAVIKVGAATEVEMKEKKARVEDALHATRAAVEEGVVAGGGVALIRVASKLADLRGQNEDQNVGIKVALRAMEAPLRQIVLNCGEEPSVVANTVKGGDGNYGYNAATEEYGNMIDMGILDPTKVTRSALQYAASVAGLMITTECMVTDLPKNDAADLGAAGGMGGMGGMGGMMVDAAKDVKFGNDARVKMLRGVNVLADAVKVTLGPKGRNVVLDKSFGAPTITKDGVSVAREIELEDKFENMGAQMVKEVASKANDAAGDGTTTATVLAQAIITEGLKAVAAGMNPMDLKRGIDKAVTAAVEELKALSVPCSDSKAIAQVGTISANSDETVGKLIAEAMDKVGKEGVITVEDGTGLQDELDVVEGMQFDRGYLSPYFINKPETGAVELESPFILLADKKISNIREMLPVLEAVAKAGKPLLIIAEDVAN	~14
	GroEL CP209 (other, E. coli, start methionine from the vector-derived ATG; GroEL, E. coli, from Glu209 to the original C-terminus; Val-Asp dipeptide linker (SalI site) joining the original C- and N-termini; GroEL, E. coli, from the original N-terminus minus the N-terminal methionine to Pro208; Circular permutant; source: E. coli JM109, purified (protocol of Machida et al. [34]); copies: 14) METGAVELESPFILLADKKISNIREMLPVLEAVAKAGKPLLIIAEDVEGEALATLVVNTMRGIVKVAAVKAPGFGDRRKAMLQDIATLTGGTVISEEIGMELEKATLEDLGQAKRVVINKDTTTIIDGVGEEAAIQGRVAQIRQQIEEATSDYDREKLQERVAKLAGGVAVIKVGAATEVEMKEKKARVEDALHATRAAVEEGVVAGGGVALIRVASKLADLRGQNEDQNVGIKVALRAMEAPLRQIVLNCGEEPSVVANTVKGGDGNYGYNAATEEYGNMIDMGILDPTKVTRSALQYAASVAGLMITTECMVTDLPKNDAADLGAAGGMGGMGGMGGMMVDAAKDVKFGNDARVKMLRGVNVLADAVKVTLGPKGRNVVLDKSFGAPTITKDGVSVAREIELEDKFENMGAQMVKEVASKANDAAGDGTTTATVLAQAIITEGLKAVAAGMNPMDLKRGIDKAVTAAVEELKALSVPCSDSKAIAQVGTISANSDETVGKLIAEAMDKVGKEGVITVEDGTGLQDELDVVEGMQFDRGYLSPYFINKP	~14
binds	GroES (natural protein, E. coli, UniProt P0A6F9 1-97, looked up, GroES cochaperonin, Escherichia coli; 7-mer; also called cochaperonin GroES; co-chaperonin; source: purified according to Iwasa et al. [35], with an 80°C heat treatment) MNIRPLHDRVIVKRKEVETKSAGGIVLTGSAAAKSTRGEVLAVGNGRILENGEVKPLDVKVGDIVIFNDGYGVKSEKIDNEEVLIMSESDILAIVEA	
binds	bovine rhodanese (enzyme, UniProt P00586 1-297, looked up, rhodanese (thiosulfate sulfurtransferase), bovine; Unfolded for 1 hr in 6 M guanidine hydrochloride at 25°C before it was added to GroEL; also called unfolded rhodanese; source: bought: Sigma) MVHQVLYRALVSTKWLAESVRAGKVGPGLRVLDASWYSPGTREARKEYLERHVPGASFFDIEECRDKASPYEVMLPSEAGFADYVGSLGISNDTHVVVYDGDDLGSFYAPRVWWMFRVFGHRTVSVLNGGFRNWLKEGHPVTSEPSRPEPAIFKATLNRSLLKTYEQVLENLESKRFQLVDSRAQGRYLGTQPEPDAVGLDSGHIRGSVNMPFMNFLTEDGFEKSPEELRAMFEAKKVDLTKPLIATCRKGVTACHIALAAYLCGKPDVAIYDGSWFEWFHRAPPETWVSQGKGGKA	
